Source: paper PMC4218953
Blank lines part the entries; values can stand above or below the substance they belong to.

Experiments:
[1] = molecular target: SecYEG translocon embedded in nanodiscs, labelled for FRET titrations (E. coli) (UniProt P0AGA2); assay: FRET or BRET; titration of nanodisc-embedded translocon with vacant ribosomes or Lep75-RNC (Supplementary Fig. 3); FRET between labels in the translocon and the ribosome is told for panel c; buffer A (20 mM HEPES pH 7.5, 70 mM NH4Cl, 30 mM KCl, 7 mM MgCl2, 10% glycerol), 25 °C
[2] = molecular target: double-labelled SecYEG(Bpy/Trp) (E. coli) (UniProt P0AGA2)
[3] = molecular target: double-labelled SecYEG(Bpy/Trp) (E. coli) (UniProt P0AGA2); remark: listed apart in the source
[4] = molecular target: SecYEG translocon embedded in nanodiscs, labelled for FRET titrations (E. coli) (UniProt P0AGA2); assay: FRET or BRET; titration monitoring FRET between labels in the translocon and the ribosome, at the lower temperature (4 °C)

DsbA100-RNC, sequence (P0AEG4 whole entry, looked up): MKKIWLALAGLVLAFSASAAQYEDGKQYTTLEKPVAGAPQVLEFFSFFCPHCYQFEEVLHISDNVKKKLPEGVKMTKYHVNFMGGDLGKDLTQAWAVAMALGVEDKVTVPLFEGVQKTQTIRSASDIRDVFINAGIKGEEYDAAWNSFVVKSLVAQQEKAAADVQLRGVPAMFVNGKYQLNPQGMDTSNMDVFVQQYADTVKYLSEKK

Kd [1]: 0.01 µM
increase of Bpy fluorescence of nanodisc-embedded SecYEG(Bpy/Trp) (50 nM) on addition of Lep75-RNC (200 nM), 25 °C (loss of PET quenching, lateral gate opening) [2]: 30%
net increase of Bpy fluorescence of SecYEG(Bpy/Trp) on Lep75-RNC binding, after the change seen with single-labelled SecYEG(Bpy), 25 °C [2]: 25%
Substance: Lep75-RNC (ribosome-nascent-chain complex carrying 75 N-terminal amino acids of leader peptidase) (from UniProt P00803 1-75)

increase of Bpy fluorescence of SecYEG(Bpy/Trp) solubilised with detergent (0.03% DDM, no nanodisc) on addition of non-translating ribosomes, 25 °C [3]: 15%
Kd [4]: 0.01 µM
Kd [1]: 0.02 µM
increase of Bpy fluorescence of nanodisc-embedded SecYEG(Bpy/Trp) (50 nM) on addition of vacant 70S ribosomes (200 nM), 25 °C (loss of PET quenching, lateral gate opening) [2]: 15%
Substance: vacant 70S ribosomes from E. coli MRE600 (complex)

increase of Bpy fluorescence of nanodisc-embedded SecYEG(Bpy/Trp) (50 nM) on addition of TolB100-RNC (200 nM), 25 °C [3]: > 20%
Substance: TolB100-RNC (from UniProt P0A855 1-430) (complex)

increase of Bpy fluorescence of nanodisc-embedded SecYEG(Bpy/Trp) (50 nM) on addition of DsbA100-RNC (200 nM), 25 °C [3]: > 20%
Substance: DsbA100-RNC (from UniProt P0AEG4 1-208) (complex)
